Experimental data published in patent US12186374B2 (Sanofi-Aventis Deutschland GmbH, priority 2014, dated 2025).

What was measured:
[1] = system: patients with Type 2 diabetes mellitus (T2DM); assay: Major cardiovascular events adjudicated by CAC (Example 2); details: on-treatment period
[2] = system: patients with Type 2 diabetes mellitus (T2DM); assay: Treatment-emergent adverse events incl. serious, fatal, leading to discontinuation (Example 2)
[3] = PT ≥3% in any treatment group, Safety population

Substance: Gly(A21)-Arg(B31)-Arg(B32)-human insulin [Insulin Glargine]
- TEAEs adjudicated as major cardiovascular events by CAC, % of patients ([1]; Example 2): 1.5%
- TEAEs adjudicated as major cardiovascular events by CAC, number of patients ([1]; Example 2): 7 patients
- Major cardiovascular events by CAC: Cardiovascular death ([1]; Safety population): 2 (0.4%) n(%)
- Major cardiovascular events by CAC: Coronary revascularization procedure ([1]; Safety population): 1 (0.2%) n(%)
- Major cardiovascular events by CAC: Hospitalization for heart failure ([1]; Safety population): 2 (0.4%) n(%)
- Major cardiovascular events by CAC: Hospitalization for unstable angina ([1]; Safety population): 1 (0.2%) n(%)
- Major cardiovascular events by CAC: Non-fatal myocardial infarction ([1]; Safety population): 0 n(%)
- Major cardiovascular events by CAC: Non-fatal stroke ([1]; Safety population): 1 (0.2%) n(%)
- Patients with events adjudicated as major cardiovascular events by CAC: Any ([1]; Safety population): 7 (1.5%) n(%)
- Diarrhea, % of patients ([2]; Example 2): 4.3%
- Nausea, % of patients ([2]; Example 2): 3.6%
- Nausea, number of patients ([2]; Example 2): 17 patients
- Overall incidence of gastrointestinal adverse events ([2]; Example 2): 12.6%
- Patients reporting treatment-emergent adverse events, % ([2]; Example 2): 48.6%
- Patients reporting treatment-emergent adverse events, number ([2]; Example 2): 227 patients
- Patients who withdrew from treatment due to TEAEs ([2]; Example 2): 1.9%
- Patients with at least 1 TEAE leading to death ([2]; Example 2): 3 patients
- Serious TEAEs, % of patients ([2]; Example 2): 4.1%
- Serious TEAEs, number of patients ([2]; Example 2): 19 patients
- Upper respiratory tract infection, % of patients ([2]; Example 2): 4.9%
- Withdrawals caused by gastrointestinal adverse events ([2]; Example 2): 0.2%
- TEAE: Back pain [2, 3]: 10 (2.1%) n (%)
- TEAE: Diarrhoea [2, 3]: 20 (4.3%) n (%)
- TEAE: Dizziness [2, 3]: 7 (1.5%) n (%)
- TEAE: Headache [2, 3]: 15 (3.2%) n (%)
- TEAE: Influenza [2, 3]: 11 (2.4%) n (%)
- TEAE: Nasopharyngitis [2, 3]: 25 (5.4%) n (%)
- TEAE: Nausea [2, 3]: 17 (3.6%) n (%)
- TEAE: Upper respiratory tract infection [2, 3]: 23 (4.9%) n (%)
- TEAE: Vomiting [2, 3]: 7 (1.5%) n (%)
- Serious TEAE: Acquired phimosis ([2]; PT, Safety population): 0 n (%)
- Serious TEAE: Acute kidney injury ([2]; PT, Safety population): 0 n (%)
- Serious TEAE: Acute myocardial infarction ([2]; PT, Safety population): 1 (0.2%) n (%)
- Serious TEAE: Acute pulmonary oedema ([2]; PT, Safety population): 1 (0.2%) n (%)
- Serious TEAE: Anaphylactic reaction ([2]; PT, Safety population): 0 n (%)
- Serious TEAE: Angioedema ([2]; PT, Safety population): 0 n (%)
- Serious TEAE: Bladder prolapse ([2]; PT, Safety population): 1 (0.2%) n (%)
- Serious TEAE: Bronchitis ([2]; PT, Safety population): 1 (0.2%) n (%)
- Serious TEAE: Calculus urinary ([2]; PT, Safety population): 1 (0.2%) n (%)
- Serious TEAE: Cardiac failure acute ([2]; PT, Safety population): 1 (0.2%) n (%)
- Serious TEAE: Cardiac failure chronic ([2]; PT, Safety population): 1 (0.2%) n (%)
- Serious TEAE: Cardiac failure congestive ([2]; PT, Safety population): 1 (0.2%) n (%)
- Serious TEAE: Cervical dysplasia ([2]; PT, Safety population): 0 n (%)
- Serious TEAE: Cholecystitis chronic ([2]; PT, Safety population): 0 n (%)
- Serious TEAE: Chronic obstructive pulmonary disease ([2]; PT, Safety population): 1 (0.2%) n (%)
- Serious TEAE: Comminuted fracture ([2]; PT, Safety population): 1 (0.2%) n (%)
- Serious TEAE: Coronary artery disease ([2]; PT, Safety population): 1 (0.2%) n (%)
- Serious TEAE: Costochondritis ([2]; PT, Safety population): 1 (0.2%) n (%)
- Serious TEAE: Death ([2]; PT, Safety population): 0 n (%)
- Serious TEAE: Diabetes mellitus inadequate control ([2]; PT, Safety population): 0 n (%)
- Serious TEAE: Dyspnoea ([2]; PT, Safety population): 1 (0.2%) n (%)
- Serious TEAE: Electrocardiogram ST-T segment abnormal ([2]; PT, Safety population): 0 n (%)
- Serious TEAE: Erysipelas ([2]; PT, Safety population): 0 n (%)
- Serious TEAE: Febrile infection ([2]; PT, Safety population): 0 n (%)
- Serious TEAE: Hydronephrosis ([2]; PT, Safety population): 1 (0.2%) n (%)
- Serious TEAE: Hypertension ([2]; PT, Safety population): 1 (0.2%) n (%)
- Serious TEAE: Lacunar infarction ([2]; PT, Safety population): 1 (0.2%) n (%)
- Serious TEAE: Lipase increased ([2]; PT, Safety population): 1 (0.2%) n (%)
- Serious TEAE: Lung cancer metastatic ([2]; PT, Safety population): 0 n (%)
- Serious TEAE: Lung neoplasm malignant ([2]; PT, Safety population): 0 n (%)
- Serious TEAE: Meningitis staphylococcal ([2]; PT, Safety population): 0 n (%)
- Serious TEAE: Metabolic acidosis ([2]; PT, Safety population): 0 n (%)
- Serious TEAE: Metastases to liver ([2]; PT, Safety population): 0 n (%)
- Serious TEAE: Metrorrhagia ([2]; PT, Safety population): 0 n (%)
- Serious TEAE: Myocardial infarction ([2]; PT, Safety population): 1 (0.2%) n (%)
- Serious TEAE: Non-cardiac chest pain ([2]; PT, Safety population): 1 (0.2%) n (%)
- Serious TEAE: Oesophagitis ([2]; PT, Safety population): 0 n (%)
- Serious TEAE: Palpitations ([2]; PT, Safety population): 0 n (%)
- Serious TEAE: Pancreatic carcinoma ([2]; PT, Safety population): 1 (0.2%) n (%)
- Serious TEAE: Pancytopenia ([2]; PT, Safety population): 1 (0.2%) n (%)
- Serious TEAE: Pneumonia ([2]; PT, Safety population): 1 (0.2%) n (%)
- Serious TEAE: Prostate cancer recurrent ([2]; PT, Safety population): 1 (0.2%) n (%)
- Serious TEAE: Pyelonephritis acute ([2]; PT, Safety population): 1 (0.2%) n (%)
- Serious TEAE: Radiculopathy ([2]; PT, Safety population): 0 n (%)
- Serious TEAE: Renal colic ([2]; PT, Safety population): 0 n (%)
- Serious TEAE: Respiratory failure ([2]; PT, Safety population): 0 n (%)
- Serious TEAE: Spinal osteoarthritis ([2]; PT, Safety population): 0 n (%)
- Serious TEAE: Squamous cell carcinoma of skin ([2]; PT, Safety population): 0 n (%)
- Serious TEAE: Squamous cell carcinoma of the oral cavity ([2]; PT, Safety population): 1 (0.2%) n (%)
- Serious TEAE: Tendon rupture ([2]; PT, Safety population): 0 n (%)
- Serious TEAE: Thyroid adenoma ([2]; PT, Safety population): 1 (0.2%) n (%)
- Serious TEAE: Toxicity to various agents ([2]; PT, Safety population): 0 n (%)
- Serious TEAE: Transient ischaemic attack ([2]; PT, Safety population): 0 n (%)
- Serious TEAE: Urinary tract infection ([2]; PT, Safety population): 0 n (%)
- Serious TEAE: Urosepsis ([2]; PT, Safety population): 1 (0.2%) n (%)
- Serious TEAE: Urticaria ([2]; PT, Safety population): 0 n (%)
- TEAE leading to death: Acute myocardial infarction ([2]; PT, Safety population): 1 (0.2%) n (%)
- TEAE leading to death: Acute pulmonary oedema ([2]; PT, Safety population): 1 (0.2%) n (%)
- TEAE leading to death: Cardiac failure acute ([2]; PT, Safety population): 1 (0.2%) n (%)
